Consider 98 substances from the supplement of paper PMC12042874.

± gives the uncertainty stated by the source.

This data set is described as follows: amyloid nucleation score (Sup35N fusion, yeast selection) (log enrichment); library NNK3; higher = more nucleation; inactive = no reads after selection. In short, it runs like this: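 Psi-negative yeast expressed Sup35N fused to peptides of 20 random codons. They were induced 24 hours with 100 μM copper sulfate, grown 7 days at 30°C without adenine and uracil, and their plasmid inserts from input and output were Illumina-sequenced. The nucleation score is the DiMSum log enrichment of output over input reads, centred on the mode score of non-aggregating sequences. Sequences with under 100 input reads were excluded.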
On to FINRVSPYMRSNRSLVGVSS, for which the amyloid nucleation score entry is “inactive”.
To FISSSCSFVRCILLVNYKIR belongs -0.66 ± 1.9; to FISWMLAR, 0.9 ± 0.12; to FITFLLVVFSKKCVNAK, “inactive”.
The result for FIVVPVGVKHDVS reads “inactive”.
Take FIYASCDNHKIDKRYVYLLM: the amyloid nucleation score entry is “inactive”.
To FKEWVFCMYECE belongs “inactive”; to FKFKERDHEWYVWFKLKHKS, “inactive”; to FKIKKVN, “inactive”.
The result for FKNLGNTFGLTKRVCV reads “inactive”; that for FKRHMTINLQRGITLIGIDM, 1.93 ± 0.062.
The result for FKSASGRL reads “inactive”; that for FKSYTWMKNLTVGFRIDPSE, “inactive”.
FLAIGLFSSNT: the amyloid nucleation score was determined as 1.73 ± 0.061.
FLDQLSVHMQCISLEFNFGV registered an amyloid nucleation score of 2.42 ± 0.068.
To FLEKGLFSLDISFARDLAEA belongs “inactive”; to FLETVSFPMKVWSL, “inactive”.
The result for FLGLLLIYQPNSIE reads “inactive”; that for FLHVRLRHSWVV, “inactive”; that for FLKLSLDIMFPYQIVYMPTT, “inactive”.
To FLLMCLMRCTRMETRCISAC belongs “inactive”; to FLLVR, “inactive”.
As to FLMAINFKVQSVPQNHR, the amyloid nucleation score is 0.211 ± 0.48.
As for FLMSHVII, the amyloid nucleation score entry is “inactive”.
In turn, FLNKITNVSIYLIGTRETDV registered an amyloid nucleation score of 2.81 ± 0.064.
The result for FLNLNNMGLSYMAVSLVEG reads “inactive”.
To FLQNFWA belongs “inactive”.
The result for FLQSGN reads “inactive”.
For FLRPV, the amyloid nucleation score result is “inactive”.
Regarding FLSDSLNARS, the amyloid nucleation score entry is “inactive”.
Consider FLSIRFV, for which the amyloid nucleation score entry is “inactive”.
The result for FLSKTLYIVVSHGVGTSGTG reads “inactive”.
Consider FLVDVYSCVCSILLWV, for which the amyloid nucleation score entry was “inactive”.
The result for FLVFGYASVGAIETWDKTAE reads “inactive”.
The result for FLYFTHARFHR reads 1.79 ± 0.094.
FMAQPSLIGLFRSQS: the amyloid nucleation score result was “inactive”.
The result for FMDYTARVVHLTAQRFMGLW reads 0.189 ± 0.43.
The result for FMFNRGAAFNHFTGHTCITY reads “inactive”; that for FMIAQGYHMLYLKHLCTSRN, “inactive”.
To FMMEACSSDKGEQSMGSWIE belongs -0.32 ± 0.78; to FMSFSRGCTWSLGWA, “inactive”; to FMSFYVLLSSTMVTQFAMGP, “inactive”.
FMSTDTLRKCLSACMFGPIP showed an amyloid nucleation score of 0.021 ± 0.31.
FMSYCMYSLEGNSWHCGP: the amyloid nucleation score is 3.03 ± 0.061.
Take FMVCCICGKYGMMVSC: the amyloid nucleation score result was “inactive”.
Regarding FMYLT, the amyloid nucleation score result was “inactive”.
To FMYNLVVSGSVHSKVDRYSC belongs 0.629 ± 0.16; to FNAPVNVLFR, -0.176 ± 0.6; to FNDKSMFDASKAMPFSLIAG, “inactive”.
To FNFCCLSKQGAFFMGTYCCP belongs 0.341 ± 0.6; to FNIEASYAPVRCCCKPLLAR, “inactive”; to FNKDINRPYKCKAH, “inactive”.
The result for FNMWIWS reads “inactive”; that for FNPERPKAVDFPILNR, “inactive”; that for FNVKVVSKSMFYFCSYMPIV, “inactive”.
On to FNVLNVNS, for which the amyloid nucleation score result was “inactive”.
The result for FNVYFGAIVFKEDLPCSYSA reads 1.23 ± 0.12; that for FNYKARYSNPVRDAIYWLQI, “inactive”; that for FPFSYVYSR, “inactive”.
To FPGRQIYYILVLAQAFASGF belongs “inactive”.
To FQAYDSWNNWSSGFILKYSI belongs “inactive”; to FQLSPTDRVYRDRSAYDVEG, “inactive”; to FQMKCNFWKI, 1.24 ± 0.077.
With FQNLAYMITAAPASGKKTSR, the amyloid nucleation score entry is “inactive”.
Regarding FQNPFTPFGLVVRYVPWLCW, the amyloid nucleation score entry was “inactive”.
FQRVGRFPSYSTCAGRVATG: the amyloid nucleation score entry is “inactive”.
The result for FQTGPRYAWGLQTGLNKQVC reads “inactive”; that for FRAWYDTAMSQSLFLCRKGA, “inactive”.
In the case of FRCSG, the amyloid nucleation score entry was “inactive”.
The result for FRDIRFAQSMMLSRKIIALL reads “inactive”.
Regarding FRFGSVELLEAGTIQ, the amyloid nucleation score turned out to be 0.043 ± 0.63.
On to FRGKISKEPNCVVYFQQGRP, for which the amyloid nucleation score result was “inactive”.
The result for FRNSLQ reads -0.725 ± 1.1; that for FRSAYDYNFC, “inactive”.
FRSRRARGKNGIEMRILRHQ: the amyloid nucleation score is -0.109 ± 0.69.
In the case of FRSVTTVVNVEKVRVY, the amyloid nucleation score entry is “inactive”.
To FRVHLFFGKWRVVVCTR belongs “inactive”.
As to FRVTMMSACRLDSIGLDCSC, the amyloid nucleation score is 1.25 ± 0.086.
To FSAIWMSRQSYLRINGSPAF belongs 0.088 ± 0.29.
To FSAKDFSNVYRSPSMF belongs “inactive”; to FSCSDLWGRSTLDKGYSFFR, “inactive”; to FSCVGGGSSNIWREVTDTCS, “inactive”.
Take FSFFRGTRLGKSARIAERFE: the amyloid nucleation score entry is “inactive”.
Turning to FSGVLLNVYYGIHYTISIYR, the amyloid nucleation score result was “inactive”.
For the substance FSITSADGCCSHLLRMYTNG, the amyloid nucleation score entry was “inactive”.
The result for FSIVELTLSRLK reads “inactive”; that for FSLGVWSNPDWVRCSHWFIF, 1.28 ± 0.14; that for FSLSPIFWYAG, “inactive”.
To FSMLWILSDYLSYSCNLVFY belongs “inactive”.
To FSREYP belongs “inactive”.
Turning to FSRKDTYFLMGIFKLNLRYL, the amyloid nucleation score result is “inactive”.
FSRMPSIKCMNCMCKLFSRK: the amyloid nucleation score amounted to 1.06 ± 0.11.
In the case of FSRYDRDLKGSLSGRSYFSA, the amyloid nucleation score entry is “inactive”.
To FSSFLISYRYLIVFRQMVSI belongs “inactive”; to FSSMANNIL, “inactive”.
To FSSVGRDDYCNGLM belongs “inactive”; to FSTMKLISMHCRVS, “inactive”; to FTDLTVNPNYNFYMCSLNRL, 2.72 ± 0.054.
